Measurements published in patent US20170361126A1, “Compositions and Methods for Inducing Nanoparticle Mediated Microvascular Embolization of Tumors” (Vindico NanoBioTechnology, LLC, priority 2011, published 2017).

B1: free Mb: free (unencapsulated) myoglobin, a cytoplasmic heme protein (protein, UniProt P02144 2-154, looked up)
Myoglobin: GLSDGEWQLVLNVWGKVEADIPGHGQEVLIRLFKGHPETLEKFDKFKHLKSEDEMKASEDLKKHGATVLTALGGILKKKGHHEAEIKPLAQSHATKHKIPVKYLEFISECIIQVLQSKHPGDFGADAQGAMNKALELFRKDMASNYKELGFQG
B2: NIR-Mb: near-infrared fluorophore (IRDye800cw NHS) covalently attached to the lysines on horse skeletal myoglobin; negative control (conjugate, UniProt P68082 2-154, looked up)
Myoglobin: GLSDGEWQQVLNVWGKVEADIAGHGQEVLIRLFTGHPETLEKFDKFKHLKTEAEMKASEDLKKHGTVVLTALGGILKKKGHHEAELKPLAQSHATKHKIPIKYLEFISDAIIHVLHSKHPGDFGADAQGAMTKALELFRNDIAAKYKELGFQG
modifications: IRDye800CW NHS on lysines
notes: near-infrared fluorophore (IRDye800cw NHS) covalently attached to the lysines on horse skeletal myoglobin; negative control

What was measured:
[1] = Oxygen equilibrium binding curves (Hemox Analyzer, Hill model); settings: partial pressure of O2 at 50% saturation; 37° C.
Experimental: Oxygen equilibrium binding curves of PEM and free Mb dispersions may be measured using a Hemox™ Analyzer at physiological temperature (37° C.). In brief, samples may be allowed to saturate to a pO2 of 147 mm Hg using compressed air and then deoxygenated using a compressed nitrogen stream. UV-Vis absorbance measurements of oxygenated and deoxygenated samples may be recorded as a function of pO2 via dual wavelength spectroscopy. Oxygen-PEM/myoglobin equilibrium curves may be fit to a four-parameter (A0, A∞, P50, n) Hill model:
in which A0 and A∞ represent the absorbance at 0 mm Hg and at full O2 saturation, respectively. The pO2 represents the partial pressure of O2, and P50 represents the partial pressure of O2 where PEM/Mb is 50% saturated with oxygen. Lastly, ‘n’ represents the cooperativity coefficient of PEM/Mb. […] The lower O2 affinity (higher P5o) of PEM than free myoglobin may be attributed to the shielding effect of the polymersome membrane, which was further found to delay the kinetics of O2 binding to PEM.

[2] = Serum chemistry panel and liver histology of treated tumor-bearing mice; assay type: in vivo; settings: n=5 mice per treatment; FIG. 21
Experimental: In example studies, 0.5×10^6 to 1×10^6 4 T1 mouse mammary carcinoma cells were injected into the mammary fat pads of balb/c mice. Once the tumors were greater than 5 mm in diameter, mice were randomized and treated via tail vein catheter with PEMs (at 100 μL of 2.5 mg/mL Mb, corresponding to 50 mg/mL polymer suspensions), empty polymersomes (at equivalent polymer doses), and NIR-Mb (at equivalent myoglobin doses) (n=5 per group). NIR-Mb and PEM were reduced to their oxy-myoglobin form prior to treatment, following protocols discussed above. Mice were sacrificed at 24 h (for biodistribution/pharmacokinetic studies) or at 6-9 days (for histology and toxicology assessment following tumor efficacy studies). In both cases, EF-5 was used to stain for hypoxia and Hoechst solution for perfusion. Tumors were collected at sacrifice. Immunofluorescence (IF) was carried out to image EF-5 and Hoechst distribution throughout the tumors. The same tumor sections were also stained with hematoxylin and eosin (H&E) for immunohistologic (IHC) analysis. Blood was collected via cardiac puncture at sacrifice; plasma was isolated and stored at −80° C. for later analyses.
FIG. 21 provides results of a serum chemistry panel done for a set of tumor-bearing mice injected with each of the following treatments (n=5 mice per treatment): NIR-myoglobin (control), empty polymersomes (control), and PEMs. […]

[3] = Biodistribution/pharmacokinetics after IV injection in 4T1 tumor-bearing mice; assay type: in vivo, balb/c mice; settings: via the kidneys and into the bladder
Experimental: In example studies, 0.5×10^6 to 1×10^6 4 T1 mouse mammary carcinoma cells were injected into the mammary fat pads of balb/c mice. Once the tumors were greater than 5 mm in diameter, mice were randomized and treated via tail vein catheter with PEMs (at 100 μL of 2.5 mg/mL Mb, corresponding to 50 mg/mL polymer suspensions), empty polymersomes (at equivalent polymer doses), and NIR-Mb (at equivalent myoglobin doses) (n=5 per group). NIR-Mb and PEM were reduced to their oxy-myoglobin form prior to treatment, following protocols discussed above. Mice were sacrificed at 24 h (for biodistribution/pharmacokinetic studies) or at 6-9 days (for histology and toxicology assessment following tumor efficacy studies). […]
For all biodistribution studies, NIR imaging of polymersomes, NIR-Mb and PEM was conducted with an MS® Kinetic Imaging System (Perkin Elmer, AeX=745 nm, Aem=810-875 nm) equipped with a Xenogen XGI-8 gas anesthesia system. Fluorescence images were analyzed with Living Image® 4.2 software by measuring radiant efficiency of regions of interest (ROIs). […]
For the pharmacokinetic studies, 15-100 μL blood samples were drawn (using a 5.5 mm lancet, Goldenrod) from the submandibular vein of the mouse and collected directly into heparinized capillary tubes (Kimble). […] The total radiant efficiency of the plasma in each capillary tube was measured in a region of interest of consistent dimensions. […]

Molecule	P50 [1] [mm Hg]	serum chemistry panel [2]	plasma clearance [3]
B1	~2	–	–
B2	–	no consistently elevated levels for any parameter	extremely rapid plasma clearance
